From patent US6962795 (CORVAS INTERNATIONAL, dated 2005)
Changes are numbered by the printed parent chain.

Experiments:
[1] = biological target: T1, Mac-1 integrin complex (CD11b/CD18) (human, UniProt P11215 17-1152; P05107 23-769); assay: competition with biotinylated NIF-1FL on LM2-captured Mac-1, Pichia supernatant
[2] = biological target: T1, Mac-1 integrin complex (CD11b/CD18); assay: competition ELISA with biotinylated mature NIF-1FL on LM2-captured Mac-1 (FIG. 18)
[3] = biological target: T1, Mac-1 integrin complex (CD11b/CD18); assay: soluble NIF-1FL pre-incubated in varying amounts on LM2/Mac-1-coated wells before the phages
[4] = biological target: T1, Mac-1 integrin complex (CD11b/CD18); assay: ELISA on LM2-captured Mac-1, 3D2-HRP detection, Pichia supernatant
[5] = biological target: T1, Mac-1 integrin complex (CD11b/CD18); assay: panning of a 1:1 mix of pAN-NIF-1FL and fd-tet phage on a Mac-1-coated well, acid elution, colony counts

B1: recombinant AcaNIF9 produced in Pichia pastoris (ligand)
chain: NEHDPTCPQNEVEMEKGFDDAMRLKFLALHNGYRSKLALGHVSITEESEDYDLYDLLYAPTASKMRYLEYDCEAEKSAYESAKKCQTTAFSSTKYDENLQVIEDPRDINHAALKAIISWATEAFNLNKTGEGVVYRSILNISNFANLAWDTREKVGCAVVKCPSGNTHVVCHYPKIVKKEGKPIYSIGKPCRGCNDYASKFFCHADEGVCIIASRDLDIYGRKKYFYPFREL
notes: Only partially purified when tested
binding result [1]: binds

B2: recombinant AcaNIF4 produced in Pichia pastoris (ligand)
chain: NEHKPMCERNETEMPGFNDSMRLQFLAMHNGYRSLLALGHVGISKQPIDDDYYDDDYYYFYSSYAPRASKMRYLEYDCEAEKSAYVSASNCSNISSPPEGYDENKYIFENSNNISEAALKAMISWAKEAFNLNKTEEGEGVLYRSNHDISNFANLAWDTREKFGCAVVNCPLGEIDTTSNRDGETYATAIHVVCHYPKILEKEEKQIYEVGKPCDRCSEYSKNANNITSPNWVCNDDDGVCFIGSKDDYISKEFYRFREL
notes: also called mature AcaNIF4
binding result [2]: binds

B3: recombinant mature NIF-1FL produced in Pichia pastoris (ligand)
chain: NEHNLRCPQNGTEMPGFNDSIRLQFLAMHNGYRSKLALGHISITEESESDDDDDFGFLPDFAPRASKMRYLEYDCEAEKSAYMSARNCSDSSSPPEGYDENKYIFENSNNISEAALKAMISWAKEAFNLNKTKEGEGVLYRSNHDISNFANLAWDAREKFGCAVVNCPLGEIDDETNHDGETYATTIHVVCHYPKINKTEGQPIYKVGTPCDDCSEYTKKADNTTSADPVCIPDDGVCFIGSKADYDSKEFYRFREL
modifications: N-glycosylated (Pichia); biotinylated on oxidised carbohydrate where used as labelled tracer
notes: also called rNIF; recombinant NIF
binding result [3]: binds

B4: recombinant NIF-1FL/ΔGl1-5 produced in Pichia pastoris (ligand)
chain: B3 chain with N10Q, N18Q, N87Q, N110Q, N130Q
notes: Mature NIF-1FL with Asn to Gln at positions 10, 18, 87, 110 and 130; also called hNIF1/ΔGl1-5; AcaNIF1/ΔGl1-5
binding result [4]: binds

B5: recombinant NIF-1FL/Δh, Gl1-7 produced in Pichia pastoris (ligand)
chain: B3 chain with N10Q, N18Q, N87Q, N110Q, N130Q, N197Q, N223Q
notes: Mature NIF-1FL with Asn to Gln at positions 10, 18, 87, 110, 130, 197 and 223; also called hNIF1/Δh, Gl1-7; AcaNIF1/Δh, Gl1-7
binding result [4]: binds

B6: AceNIF3 produced in Pichia pastoris (pYAM7SP-AceNIF3) (ligand)
chain: NEHEPTCKQNNGSMTNELRRRFLRLHNGYRSILALGHVNISEESNETFLYAHRASRMRILDYDCDAEGSAYESAIKQCSSNKSSSAEYDENVYVIDNTYEDEVDPALKAISSWTSQAFNLTHAEEGIPYQWNDSVSDFANVAWDAREKLGCAVVTCDQGNTTHVVCHYGPKAANKTEPIYKVGVPCSNCTEYTRGDEEKVFCHADEGVCVINLRDLNSHLNTSLRYPPI
notes: Carries a hybrid N-terminus N-E-H-E-P-T-C-K-Q (first three residues from AcaNIF9); Tested as crude Pichia cell supernatant
binding result [1]: binds

B7: phages displaying mature NIF-1FL (NIF-1FL-pgIII fusion from pAN-NIF-1FL) (other)
chain: B3 chain
notes: An extra Ala codon stands between the pelB signal and NIF-1FL; also called NIF-phage; NIF-displaying phages; not shown: linker with a NotI site and a suppressed TAG amber codon between NIF-1FL and pgIII; product of filamentous phage M13 gene III (pgIII), fused at the C-terminus of NIF-1FL
fold enrichment over non-displaying fd-tet phage [5]: 30 fold

B8: recombinant AcaNIF6 produced in Pichia pastoris (ligand)
chain: NEHKPMCQQNETEMPGFNDLMRLQFLAMHNGYRSKLALGHISITDESESDYDYDYGFLPDFAPSASKMRYLEYDCEAERSAYTSASDCSDSSSPPEGYDENKYIFENSNNISEAALKAMISWAKEAFNLNKTEKGVLYQPNHDISNFANLAWDTREKFGCAVVNCPLGEIDADIYDEETYATTIHVVCHYPKINKTEGEPIYKVGTPCDDCSEYTKKADNTTSADPVCIPDDGVCFIGSKADYDSKEFYRFREL
notes: also called mature AcaNIF6
binding result [4]: binds
